Assay results as given in patent US20210163606A1 (ATYR PHARMA, published 2021).
Residue numbers refer to the chain shown, from its start.

What was measured:
[1] = molecular target: T1, mouse NRP2 I383V on transfected Expi293 cells (Mouse, UniProt O35375 21-931); assay: flow cytometry, aNRP2-10v10 at 10 nM on transfected Expi293 cells gated on live, single, NRP2 expressing cells [panel 11B]
T1 construct: whole, on cells; also called 1383V
T1 sequence (looked up): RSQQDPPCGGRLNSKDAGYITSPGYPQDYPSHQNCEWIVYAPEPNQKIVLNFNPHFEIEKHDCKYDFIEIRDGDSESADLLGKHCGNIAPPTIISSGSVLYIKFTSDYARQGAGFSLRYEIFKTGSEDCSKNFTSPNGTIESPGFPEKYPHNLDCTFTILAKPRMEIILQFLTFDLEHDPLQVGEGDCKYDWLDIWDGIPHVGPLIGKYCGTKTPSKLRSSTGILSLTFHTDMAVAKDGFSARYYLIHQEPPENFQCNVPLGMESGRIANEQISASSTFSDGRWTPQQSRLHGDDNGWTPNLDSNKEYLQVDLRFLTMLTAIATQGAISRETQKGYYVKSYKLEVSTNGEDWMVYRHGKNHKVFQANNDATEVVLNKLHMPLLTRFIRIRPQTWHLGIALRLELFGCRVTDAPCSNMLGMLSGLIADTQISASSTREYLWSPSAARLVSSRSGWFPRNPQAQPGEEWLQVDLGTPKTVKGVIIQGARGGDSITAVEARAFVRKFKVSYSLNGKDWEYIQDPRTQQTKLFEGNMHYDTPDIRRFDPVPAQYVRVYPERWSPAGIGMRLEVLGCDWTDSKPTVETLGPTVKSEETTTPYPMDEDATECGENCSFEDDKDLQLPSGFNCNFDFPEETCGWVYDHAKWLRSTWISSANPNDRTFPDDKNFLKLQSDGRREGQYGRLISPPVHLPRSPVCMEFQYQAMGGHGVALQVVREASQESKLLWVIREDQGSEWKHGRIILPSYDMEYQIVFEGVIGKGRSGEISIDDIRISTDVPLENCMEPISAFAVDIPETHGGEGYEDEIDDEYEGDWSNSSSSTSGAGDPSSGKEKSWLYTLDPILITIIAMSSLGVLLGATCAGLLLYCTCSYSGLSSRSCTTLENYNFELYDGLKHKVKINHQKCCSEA
Procedure: (§1) FIGS. 11A-11B show the measurement of antibody binding to Expi293 cells over-expressing NRP2. […] Gating for NRP2 over-expressing cells is shown.
(§2) Human NRP2a (version 2; see Table N1) and mouse NRP2v2 cDNAs were obtained from Origene. […] Human and mouse NRP2, expression vectors, along with expression vectors encoding all 6 mutants were transfected into Expi293 cells at 1 million cells/mL, by standard techniques. Approximately 40 hours post transfection cells were co-stained with aNRP2-10v10, and a species agnostic anti-NRP2 a1 specific binding antibody.

[2] = molecular target: T2, mouse NRP2 M400A on transfected Expi293 cells (Mouse, UniProt O35375 21-931); assay: as above
T2 construct: whole, on cells
T2 sequence (looked up): T1 sequence (looked up) with V363I, M380A
Procedure: as §1, §2

B1: aNRP2-10v10 (antibody, V domains shown)
VH: EVQLVQSGAEVKKPGATVKISCKVSGFNIKDYYVHWVQQAPGKGLEWMGRIDVEDDETKYAPKFQGRVTITADTSTDTAYMELSSLRSEDTAVYYCATPIYGAREAWFAYWGQGTLVTVSS
VL: DIQMTQSPSSLSASVGDRVTITCTASSSVSSSYLHWYQQKPGKAPKLLIYRTSNLASGVPSRFSGSGSGTDFTLTISSLQPEDFATYYCHQYYRSPPTFGGGTKVEIK
binding result [1]: no binding (tested: 10 nM)
binding result [2]: no binding (tested: 10 nM)
